Tests used:
[1] = test system: NC(=O)c1ncn([C@@H]2O[C@H](COP(=O)(O)O)[C@@H](O)[C@H]2O)c1NC=O; assay: purified protein; type: biochemical, Archaeoglobus fulgidus; details: 0.050 M Tris, pH 7.3, 50°C, MBP fusion
[2] = test system: NC(=O)c1ncn([C@@H]2O[C@H](COP(=O)(O)O)[C@@H](O)[C@H]2O)c1NC=O; assay: purified protein; type: biochemical, Thermococcus kodakarensis; details: 0.050 M Tris, pH 7.3, 50°C, MBP fusion

Substance | Km [1] [µM] | kcat [1] [s⁻¹] | Km [2] [µM] | kcat [2] [s⁻¹]
AF1811 (Archaeoglobus fulgidus PurH2) (Archaeoglobus fulgidus DSM 4304) | 7.8 ± 1.8 | 1.32 ± 0.14 |  | 
TK0430 (Thermococcus kodakarensis PurO) (Thermococcus kodakarensis KOD1) |  |  | 1.56 ± 0.39 | 0.48 ± 0.04

Source: paper PMC6797443, “Experimental characterization of two archaeal inosine 5'-monophosphate cyclohydrolases” (PLoS ONE, 2019)
